Biological target: the molecule itself
Experiment: SEC; Biogel P-100 column; CLA incubated 5 h at room temperature at pH 7, 5 or 4 (10 mM Na-phosphate or Na-acetate, 150 mM NaCl); mass from a standard curve run at pH 7

B1: Curcuma longa rhizome lectin (natural protein)
chain: KNILLSGETLETGKFLTEGEFTFLMQSDCNLVLYDLNRPIWSSGTIHKGSGCILKMQNDGNLVIYNVTNNAIWASNTGGQQGNYILILQRDRNVVIYSQPIFNTDTAVSKLNSSNLGETGNGGNIAQPENKIAIGASNGHNANILPSGETLPTGKLTLPSEVATETGK
modifications: glycosylated (glycoprotein with about 5.2% covalently bound sugar); sites not stated
**Q.** With B1 as the protein, how does the “stoichiometry N” value read?
**A.** 2

Source: PMC4139268, “Thermal, Chemical and pH Induced Unfolding of Turmeric Root Lectin: Modes of Denaturation” (PLoS ONE, 2014)
